Data from article PMC4923858.

Key:
TβRII-GFP [1] = biological target: TβRII-GFP (UniProt P37173); experiment: AFM single-molecule force spectroscopy; TGF-β1-modified AFM tips on live HeLa cells expressing TβRII-GFP; contact mode, room temperature, loading rate 1.0 x 10^4 pN/s; untreated cells
TβRII-GFP [2] = biological target: TβRII-GFP (UniProt P37173); experiment: AFM single-molecule force spectroscopy; TGF-β1-modified AFM tips on live HeLa cells expressing TβRII-GFP; contact mode, room temperature, loading rate 1.0 x 10^4 pN/s; cells treated with 50 μM metformin

TβRII-GFP, sequence (P37173 23-567): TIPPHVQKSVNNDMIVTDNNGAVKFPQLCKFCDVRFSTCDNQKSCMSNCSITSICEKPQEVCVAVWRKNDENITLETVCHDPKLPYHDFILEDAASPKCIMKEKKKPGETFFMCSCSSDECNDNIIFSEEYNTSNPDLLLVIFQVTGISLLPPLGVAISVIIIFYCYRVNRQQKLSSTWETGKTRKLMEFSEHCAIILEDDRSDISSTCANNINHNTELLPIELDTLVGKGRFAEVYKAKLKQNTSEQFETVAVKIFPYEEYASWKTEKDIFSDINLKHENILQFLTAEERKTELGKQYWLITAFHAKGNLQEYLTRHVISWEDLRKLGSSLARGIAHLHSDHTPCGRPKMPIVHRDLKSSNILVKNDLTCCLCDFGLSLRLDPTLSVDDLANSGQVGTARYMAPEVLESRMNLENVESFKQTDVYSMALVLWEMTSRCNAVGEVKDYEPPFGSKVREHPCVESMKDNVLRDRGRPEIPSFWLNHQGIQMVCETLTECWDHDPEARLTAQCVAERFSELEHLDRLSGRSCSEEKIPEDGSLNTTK

binding force (averaged histogram peak value) (TβRII-GFP [1]): 49.5 pN
binding probability (TβRII-GFP [1]): 21.7%
binding force (averaged histogram peak value), with 50 μM metformin (TβRII-GFP [2]): 49.3 pN
binding probability, with 50 μM metformin (TβRII-GFP [2]): 9.9%
Substance: Recombinant human TGF-β1 (ligand)
